Reference: the supplement of paper PMC7877785
± gives the uncertainty stated by the source.

Experiment: self-splicing fitness, log relative to wild type (ln ratio); higher = more splicing; Tetrahymena group I intron in knt gene, E. coli kanamycin selection, DiMSum; sequences stand for … in CUCUCU…GGAGGGAAAAGUUAUCAGGCAUGCACCUGGUAGCUAGUCUUUAAACCAAUAGAUUGCAUCGGUUUAAAAGGCAAGACCGUCAAAUUGCGGGAAAGGGGUCAACAGCCGUUCAGUACCAAGUCUCAGGGGAAACUUUGAGAUGGCCUUGCAAAGGGUAUGGUAAUAAGCUGACGGACAUGGUCCUAACCACGCAGCCAAGUCCUAAGUCAACAGAUCUUCUGUUGAUAUGGAUGCAGUUCACAGACUAAAUGUCGGUCGGGGAAGAUGUAUUCUUCUCAUAAGAUAUAGUCGGACCUCUCCUUAAUGGGAGCUAGCGGAUGAAGUGAUGCAACACUGGAGCCGCUGGGAACUAAUUUGUAUGCGAAAGUAUAUUGAUUAGUUUUGGAGUACUCGUGGUCG
Summary of the method: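 Fitness was computed with DiMSum as the error-weighted combination of replicate fold changes, kanamycin versus none, each normalised to wild type. The library randomised all eight intron nucleotides of the P1ex region, with the intron placed in the knt kanamycin-resistance gene on pET-22b(+) in E. coli BL21(DE3). Six replicate transformations were grown overnight at 37°C or 30°C on LB agar with or without 25 μg/mL kanamycin, plus 100 μg/mL carbenicillin, 50 μM IPTG and 0.2% rhamnose. Pooled colonies were amplicon-sequenced on an Illumina HiSeq 2500.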

Sequence | self-splicing fitness (ln) (30 °C) | self-splicing fitness (ln) (37 °C)
CUUUAGCAAUAUUACGAACA | -3.07 ± 0.41 | –
CAACAGCAAUAUUACGGCCA | -2.55 ± 0.15 | -1.59 ± 0.14
GACGAGCAAUAUUACGUUAA | -3.77 ± 0.27 | -2.79 ± 0.25
CAAGAGCAAUAUUACGCGUU | -3.61 ± 0.22 | -3.05 ± 0.25
AUAAAGCAAUAUUACGACGA | -0.00868 ± 0.096 | 0.701 ± 0.12
GCUGAGCAAUAUUACGCUUC | -2.38 ± 0.15 | -3.41 ± 0.39
CCCAAGCAAUAUUACGUAAC | -3.6 ± 0.18 | -2.52 ± 0.21
CUAGAGCAAUAUUACGUCAC | -3.34 ± 0.36 | -1.72 ± 0.29
GCAGAGCAAUAUUACGCAGU | -3.61 ± 0.29 | -1.86 ± 0.3
AGGGAGCAAUAUUACGUUUG | -3.56 ± 0.39 | -2.66 ± 0.35
CCUGAGCAAUAUUACGUAGU | -3.18 ± 0.14 | -1.21 ± 0.14
UGGGAGCAAUAUUACGGUGU | -2.52 ± 0.45 | -1.9 ± 0.37
CACGAGCAAUAUUACGGAAG | -3.54 ± 0.21 | -2.32 ± 0.2
GACGAGCAAUAUUACGAUCA | -2.22 ± 0.36 | -0.86 ± 0.23
AGUAAGCAAUAUUACGGGAC | -3.47 ± 0.26 | -2.45 ± 0.26
CCUCAGCAAUAUUACGACGA | -4.04 ± 0.33 | -2.86 ± 0.3
GCGGAGCAAUAUUACGUAAG | -3.35 ± 0.33 | -0.951 ± 0.19
UGACAGCAAUAUUACGUGGC | -4.11 ± 0.28 | -3.11 ± 0.37
GAUAAGCAAUAUUACGCACG | -1.16 ± 0.13 | -0.4 ± 0.17
CGUCAGCAAUAUUACGAAGG | -0.693 ± 0.074 | -0.652 ± 0.11
GUUAAGCAAUAUUACGACAG | -2.85 ± 0.28 | -1.82 ± 0.33
GUCGAGCAAUAUUACGUAUC | -0.209 ± 0.13 | -1.42 ± 0.15
CCGGAGCAAUAUUACGAGAC | -2.99 ± 0.38 | –
GUCAAGCAAUAUUACGAAUC | -2.16 ± 0.11 | -0.596 ± 0.12
UGGCAGCAAUAUUACGUGGG | -2.8 ± 0.1 | -2.02 ± 0.11
UGCCAGCAAUAUUACGGGGG | -3.83 ± 0.17 | -2.9 ± 0.17

Sequence | self-splicing fitness (ln) (30 °C) | self-splicing fitness (ln) (37 °C)
CCUUAGCAAUAUUACGGUGG | -2.71 ± 0.15 | -1.36 ± 0.15
CUCAAGCAAUAUUACGCUGC | -3.68 ± 0.21 | -2.63 ± 0.19
GGGCAGCAAUAUUACGUGUU | -1.64 ± 0.072 | -0.906 ± 0.08
ACAGAGCAAUAUUACGGUGU | -3.8 ± 0.15 | -3.02 ± 0.22
GGUGAGCAAUAUUACGCUGC | -3.91 ± 0.28 | -2.65 ± 0.32
CCCAAGCAAUAUUACGACCU | -3.38 ± 0.26 | -2.44 ± 0.25
GCAAAGCAAUAUUACGCCUG | -2.21 ± 0.1 | -1.12 ± 0.12
CUUUAGCAAUAUUACGCCCU | -3.13 ± 0.38 | -3.23 ± 0.25
CGGUAGCAAUAUUACGCGUG | -2.11 ± 0.15 | -1.82 ± 0.14
UUUAAGCAAUAUUACGAGGA | -1.85 ± 0.13 | -1.22 ± 0.15
AUCAAGCAAUAUUACGAAGC | -3.81 ± 0.43 | –
CCAGAGCAAUAUUACGCGAU | – | -2.21 ± 0.33
CACUAGCAAUAUUACGAGUA | -1.34 ± 0.096 | -0.6 ± 0.076
UGUUAGCAAUAUUACGGUCC | -2.6 ± 0.38 | –
GCCUAGCAAUAUUACGGUGG | -4.34 ± 0.27 | -2.86 ± 0.22
GUCUAGCAAUAUUACGGGUG | -1.28 ± 0.05 | -0.553 ± 0.058
GACAAGCAAUAUUACGGGUU | -3.38 ± 0.14 | -3.46 ± 0.17
UUCCAGCAAUAUUACGUUCA | -0.829 ± 0.13 | 0.389 ± 0.12
AAGGAGCAAUAUUACGCUUG | -1.86 ± 0.1 | -0.799 ± 0.13
CUCGAGCAAUAUUACGGUUU | -3.87 ± 0.27 | –
ACACAGCAAUAUUACGUUAC | -3.18 ± 0.15 | -2.14 ± 0.17
UCUAAGCAAUAUUACGGCGU | -2.01 ± 0.11 | -0.795 ± 0.11
CUGGAGCAAUAUUACGCAGG | -3.11 ± 0.23 | -2.36 ± 0.2
GCUAAGCAAUAUUACGUGUU | -1.78 ± 0.072 | -0.774 ± 0.093
AGGUAGCAAUAUUACGUUCC | -0.904 ± 0.018 | -0.623 ± 0.036
GGAAAGCAAUAUUACGGCAG | -1.79 ± 0.21 | -3.11 ± 0.43

Sequence | self-splicing fitness (ln) (30 °C) | self-splicing fitness (ln) (37 °C)
UACAAGCAAUAUUACGCUUU | -3.73 ± 0.17 | -2.29 ± 0.16
GUUUAGCAAUAUUACGUCCA | -1.53 ± 0.24 | -1.18 ± 0.28
GUAAAGCAAUAUUACGUUCC | -2.91 ± 0.18 | 0.158 ± 0.14
AUGAAGCAAUAUUACGUAGC | -4.32 ± 0.42 | -1.45 ± 0.27
ACGGAGCAAUAUUACGAUCC | – | -1.94 ± 0.47
GCUUAGCAAUAUUACGCCAG | -1.89 ± 0.33 | -1.76 ± 0.33
AACUAGCAAUAUUACGAAAC | -3.3 ± 0.21 | -2.94 ± 0.3
UGGCAGCAAUAUUACGCACA | -1.24 ± 0.11 | -0.127 ± 0.12
UCAAAGCAAUAUUACGCCCU | -3.06 ± 0.44 | -0.887 ± 0.18
AUUUAGCAAUAUUACGUAAC | -2.52 ± 0.18 | -2.58 ± 0.2
CAGAAGCAAUAUUACGUUUC | -3.38 ± 0.29 | -2.12 ± 0.23
UGUCAGCAAUAUUACGCAGA | -2.8 ± 0.25 | -2.38 ± 0.5
GUGAAGCAAUAUUACGGUGA | -0.922 ± 0.11 | 0.58 ± 0.14
CAUUAGCAAUAUUACGCCUC | -1.17 ± 0.21 | -1.83 ± 0.31
CGAGAGCAAUAUUACGACGU | -2.81 ± 0.22 | -3.04 ± 0.43
CAACAGCAAUAUUACGACGU | -0.776 ± 0.042 | -0.12 ± 0.054
UGACAGCAAUAUUACGAACU | -0.592 ± 0.14 | 0.0955 ± 0.17
UUGUAGCAAUAUUACGAAGA | -3.14 ± 0.33 | –
CGAUAGCAAUAUUACGUCAG | -1.39 ± 0.13 | -1.25 ± 0.14
UUCAAGCAAUAUUACGUAAA | -0.739 ± 0.086 | -0.541 ± 0.14
UAAAAGCAAUAUUACGAUCC | -2.13 ± 0.34 | -2.05 ± 0.27
UUUCAGCAAUAUUACGAAGG | -2.18 ± 0.15 | -2.34 ± 0.28
CAUGAGCAAUAUUACGGGUU | -3.04 ± 0.1 | -3.05 ± 0.16
ACGCAGCAAUAUUACGGAAG | -3.57 ± 0.24 | -1.75 ± 0.16
AAUCAGCAAUAUUACGAAAU | -0.801 ± 0.066 | 0.368 ± 0.092
